Measured values published in patent US6384302.

Key:
Experiment in all cases: cell-based or functional assay
[1] = target: Helicoverpa zea (H. zea) midgut trypsin (Helicoverpa zea)
bovine trypsin (bovine) = bovine trypsin (bovine) (UniProt P00760)
[2] = target: trypsin (source not stated)

IA = Inhibitory Activity in IUs (BAPNA hydrolysis) [1] | SA = Specific Activity in IU/mg protein (IU/mg protein) [1] | IA = Inhibitory Activity in IUs (BAPNA hydrolysis) (bovine trypsin (bovine)) | SA = Specific Activity in IU/mg protein (IU/mg protein) (bovine trypsin (bovine)) | inhibition activity after heating at 70° C. for 5 minutes [2] | inhibition activity before heating [2] | Substance
7.46 IU | 3.73 | 4.96 IU | 2.48 |  |  | Affinity purified P. macroloba trypsin inhibitor (PmTI)
 | 2.1 |  | 5.03 |  |  | Bowman-Birk trypsin inhibitor (soybean) (from UniProt P01055 40-110)
 | 0.845 |  | 1.02 |  |  | Kunitz trypsin inhibitor (soybean) (from UniProt P01070 25-205)
7.86 IU | 3.93 | 5.57 IU | 2.78 |  |  | P. macroloba large trypsin inhibitor (PmLTI)

The remaining lines, values behind:

Substance | IA = Inhibitory Activity in IUs (BAPNA hydrolysis) [1] | SA = Specific Activity in IU/mg protein (IU/mg protein) [1] | IA = Inhibitory Activity in IUs (BAPNA hydrolysis) (bovine trypsin (bovine)) | SA = Specific Activity in IU/mg protein (IU/mg protein) (bovine trypsin (bovine)) | inhibition activity after heating at 70° C. for 5 minutes [2] | inhibition activity before heating [2]
Crude P. macroloba seed extract | 0.245 IU | 0.079 | 0.119 IU | 0.038 | 3.7 IU/mg TI | 2.2 IU/mg TI
P. macroloba small trypsin inhibitor (PmSTI) | 8.54 IU | 14.2 | 30.6 IU | 50.9 |  | 
